Among the data in publication PMC9402538 (2022) are Ka values, retold here.

For this test, the target named is T1, APC (303–739) (UniProt P25054 303-739).
T1 chain: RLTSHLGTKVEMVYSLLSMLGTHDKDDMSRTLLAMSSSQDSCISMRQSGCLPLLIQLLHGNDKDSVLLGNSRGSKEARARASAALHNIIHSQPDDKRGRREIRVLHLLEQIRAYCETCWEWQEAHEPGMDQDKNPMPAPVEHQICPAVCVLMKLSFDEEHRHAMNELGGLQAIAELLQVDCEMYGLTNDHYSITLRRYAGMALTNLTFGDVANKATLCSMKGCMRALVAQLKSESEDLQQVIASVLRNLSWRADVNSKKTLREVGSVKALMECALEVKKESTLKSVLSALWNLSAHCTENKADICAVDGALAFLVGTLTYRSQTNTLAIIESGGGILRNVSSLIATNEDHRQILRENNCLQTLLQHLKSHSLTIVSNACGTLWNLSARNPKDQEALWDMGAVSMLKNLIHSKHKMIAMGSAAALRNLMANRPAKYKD
Briefly: ITC. On the technique in general: In ITC the heat of successive injections is recorded.

The star is where a group is joined. FITC = O=C1OC2(c3ccc(O)cc3Oc3cc(O)ccc32)c2ccc(NC(=S)*)cc21; Cbz = O=C(OCc1ccccc1)*

Cbz-AGESLYEK(FITC)-NH2 [tracer 7 (Z–AGESLYEK[FITC]–NH2)] gave a Ka of 1.29e+07 M⁻¹. Ac-GGGGEQLAINELISDGK(FITC)-NH2 [tracer 1 (Ac–GGGGEQLAINELISDGK[FITC]–NH2)] had a Ka of 1.73e+06 M⁻¹.
